Test results: the supplement of paper PMC10567573

B1: ZNF8 (parent)
chain: SLGRHKRTHTGEKPYTCSVCGKSF
B2: CRYL1 (parent)
chain: RNALENIRKEMKLLEQAGSLKGSL

Variants of: B1
Assay: protein stability index of a GFP-peptide fusion (GPS, HEK-293T) (PSI 1-6); higher = more stable
Conditions: c terminus: a fixed tail appended
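Note: lentivirally expressed fusions sorted by FACS into six bins by GFP to DsRed ratio, PSI derived from sequencing read proportions per bin multiplied by bin number.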

Row | Variant | protein stability index
1 | H5N | 2.52
2 | H5Q | 2.84
3 | H5E | 3.15
4 | H5M | 2.6
5 | H5L | 2.26
6 | H5W | 2.46
7 | H5F | 1.82
8 | H5C | 3.77
9 | H5K | 3.01
10 | H5I | 3.34
11 | H5V | 2.54
12 | H5S | 2.35
13 | H5G | 3.18
14 | H5A | 2.5
15 | H5D | 3.17
16 | H5Y | 2.72
17 | H5P | 2.78
18 | H5R | 3.03
19 | H5T | 3.06
20 | H9Y | 3.15
21 | H9Q | 3.98
22 | H9E | 3.06
23 | H9K | 3.13
24 | H9I | 2.84
25 | H9F | 2.09

Row | Variant | protein stability index
26 | H9R | 2.94
27 | H9S | 2.66
28 | H9D | 2.79
29 | H9P | 2.96
30 | H9T | 2.78
31 | H9W | 2.83
32 | H9L | 2.18
33 | H9C | 2.59
34 | H9V | 2.47
35 | H9M | 2.59
36 | H9G | 2.16
37 | H9A | 2.82
38 | H9N | 2.67
39 | R4Q | 2.2
40 | R4D | 3
41 | R4H | 2.85
42 | R4N | 3.1
43 | R4M | 2.5
44 | R4T | 3.61
45 | R4E | 4.09
46 | R4I | 1.89
47 | R4C | 4.3
48 | R4G | 3.44
49 | R4S | 3.19
50 | R4W | 2.13

Row | Variant | protein stability index
51 | R4V | 2.5
52 | R4P | 2.34
53 | R4F | 2.57
54 | E12C | 2.24
55 | E12F | 1.74
56 | E12H | 2.52
57 | E12D | 2.64
58 | E12N | 3.1
59 | E12Q | 2.77
60 | E12W | 2.2
61 | E12M | 2.41
62 | E12G | 2.79
63 | E12T | 2.24
64 | E12V | 2.11
65 | E12L | 2.37
66 | E12A | 2.7
67 | E12K | 2.79
68 | E12P | 3.28
69 | E12S | 2.64
70 | E12I | 2.53
71 | E12R | 3.19
72 | E12Y | 3.15
73 | S1K | 3.05
74 | S1C | 3.6
75 | S1M | 2.46

Row | Variant | protein stability index
76 | S1T | 2.94
77 | S1W | 1.5
78 | S1E | 3.94
79 | S1I | 2.18
80 | S1V | 2.58
81 | S1G | 2.8
82 | S1H | 3.08
83 | S1L | 1.73
84 | S1D | 3.4
85 | S1Y | 2.42
86 | S1Q | 3.71
87 | S1A | 2.86
88 | S1P | 2.72
89 | S1N | 2.63
90 | S1F | 2.21
91 | S1R | 2.82
92 | P14D | 3.11
93 | P14C | 2.73
94 | P14A | 2.23
95 | T8P | 2.64
96 | T8A | 3.09
97 | T8I | 1.91
98 | T8R | 2.83
99 | T8C | 2.45
100 | T8M | 1.9

Row | Variant | protein stability index
101 | T8V | 2.68
102 | T8K | 3.17
103 | T8L | 2.61
104 | T8H | 3.05
105 | T8S | 3.02
106 | T8D | 3.45
107 | T8W | 2.2
108 | T8N | 2.44
109 | T8Q | 3.17
110 | T8G | 2.68
111 | T8F | 2.6
112 | T8Y | 2.65
113 | T8E | 2.97
114 | K6W | 1.94
115 | K6G | 2.33
116 | K6R | 2.77
117 | K6D | 4.27
118 | K6C | 3.29
119 | K6I | 2.43
120 | K6S | 2.61
121 | K6E | 3.29
122 | K6Y | 3.23
123 | K6P | 2.18
124 | K6Q | 2.95
125 | K6N | 2.48

Row | Variant | protein stability index
126 | K6A | 2.68
127 | K6H | 1.97
128 | K6F | 1.82
129 | K6L | 2.04
130 | K6M | 2.38
131 | K6T | 2.97
132 | K6V | 2.35
133 | T10Q | 3.12
134 | T10S | 3.28
135 | T10L | 2.19
136 | T10Y | 2.18
137 | T10W | 2.33
138 | T10E | 2.86
139 | T10F | 1.88
140 | T10V | 2.09
141 | T10I | 2.77
142 | T10K | 2.84
143 | T10H | 2.98
144 | T10D | 3.47
145 | T10C | 2.08
146 | T10R | 2.32
147 | T10N | 3.44
148 | T10G | 3.3
149 | T10P | 2.56
150 | T10A | 2.84

Row | Variant | protein stability index
151 | T10M | 2.74
152 | L2T | 3.12
153 | L2Y | 3.26
154 | L2H | 4.09
155 | L2G | 2.95
156 | L2A | 2.71
157 | L2V | 2.8
158 | L2K | 3.66
159 | L2I | 2.99
160 | L2F | 2.61
161 | L2C | 4.3
162 | L2E | 2.8
163 | L2M | 2.67
164 | L2N | 3.82
165 | L2D | 3.19
166 | L2R | 2.04
167 | L2P | 2.77
168 | L2W | 2.93
169 | L2Q | 2.25
170 | G3K | 4.65
171 | G3N | 2.21
172 | G3P | 3.02
173 | G3E | 3.41
174 | G3T | 3.28
175 | G3Y | 2.79

Row | Variant | protein stability index
176 | G3D | 3.32
177 | G3S | 1.93
178 | G3M | 2.66
179 | G3C | 3.68
180 | G3W | 1.98
181 | G3I | 3.15
182 | G3A | 2.12
183 | G3R | 2.03
184 | G3L | 1.21
185 | G3H | 4.17
186 | G3V | 3.78
187 | G11F | 2.4
188 | G11L | 2.42
189 | G11M | 2.41
190 | G11K | 2.9
191 | G11T | 3.09
192 | G11D | 3.24
193 | G11N | 2.3
194 | G11Y | 2.94
195 | G11C | 2.77
196 | G11I | 2.07
197 | G11S | 2.79
198 | G11E | 2.51
199 | G11Q | 2.53
200 | G11V | 1.98

Row | Variant | protein stability index
201 | G11R | 2.53
202 | G11P | 2.73
203 | G11H | 3.29
204 | G11A | 2.17
205 | G11W | 3.56
206 | K13L | 1.99
207 | K13D | 2.34
208 | K13H | 2.96
209 | K13E | 2.39
210 | K13C | 2.88
211 | K13M | 2.4
212 | K13Y | 2.31
213 | K13W | 3.06
214 | K13F | 2.2
215 | K13R | 2.39
216 | K13S | 2.94
217 | K13P | 2.71
218 | K13G | 2.61
219 | K13I | 2.65
220 | K13A | 3.72
221 | K13T | 2.92
222 | K13N | 2.48
223 | K13Q | 2.71
224 | R7P | 2.98
225 | R7M | 2.44

Row | Variant | protein stability index
226 | R7E | 4.08
227 | R7N | 3.38
228 | R7I | 3.39
229 | R7Q | 2.98
230 | R7S | 3.34
231 | R7L | 2.66
232 | R7D | 3.02
233 | R7W | 2.8
234 | R7V | 3.37
235 | R7Y | 2.96
236 | R7F | 2.83
237 | R7T | 2.32
238 | R7A | 2.42
239 | R7H | 3.65
240 | R7K | 3
241 | R7G | 4.28
242 | R7C | 4.55

Variants of: B2
Assay: as above
Conditions: c terminus: a fixed tail appended

Row | Variant | protein stability index
243 | Q16H | 3.25
244 | Q16I | 2.76
245 | Q16V | 2.89
246 | Q16D | 4.1
247 | Q16T | 3.01
248 | Q16G | 3.7
249 | Q16A | 2.93
250 | Q16C | 3.35
251 | A17K | 3.51
252 | A17V | 3.58
253 | K21P | 2.79
254 | K21N | 3.34
255 | K21E | 3.93
256 | K21I | 2.4
257 | K21Y | 2.78
258 | K21W | 2.17
259 | N2C | 2.72
260 | N2I | 2.69
261 | N2H | 3.49
262 | N2T | 2.92
263 | N2Q | 3.39
264 | K9V | 3.78
265 | K9R | 3.31

Row | Variant | protein stability index
266 | K9P | 3.58
267 | K9E | 3.83
268 | E10L | 2.44
269 | E10R | 1.87
270 | E10Y | 1.08
271 | E10P | 3.06
272 | E10G | 2.87
273 | E10C | 1.83
274 | E10T | 2.39
275 | E15P | 3.37
276 | E15V | 2.39
277 | L4V | 3.65
278 | L4G | 3.14
279 | L4M | 3.37
280 | L4N | 4.39
281 | L4S | 4.36
282 | L4I | 3.21
283 | L13F | 2.85
284 | G22P | 3.51
285 | G22Y | 2.28
286 | G22E | 3.57
287 | G22R | 3.4
288 | N6A | 3.66

Row | Variant | protein stability index
289 | N6L | 2.17
290 | N6K | 3.06
291 | N6V | 3.03
292 | S19Q | 2.85
293 | M11G | 4
294 | M11R | 4.01
295 | M11K | 2.79
296 | A3G | 3.34
297 | A3W | 2.57
298 | A3K | 3.48
299 | A3P | 4.1
300 | A3T | 4.32
301 | A3D | 3.75
302 | A3R | 3.98
303 | L20G | 4.08
304 | L20Q | 4.71
305 | L20R | 4.17
306 | L20M | 2.84
307 | G18W | 2.37
308 | G18D | 3.64
309 | K12H | 3.46
310 | K12W | 1.72
311 | K12T | 3.54

Row | Variant | protein stability index
312 | L14E | 4.88
313 | S23K | 3.39
314 | S23R | 3.07
315 | S23A | 2.9
316 | R1S | 3.48
317 | R1A | 2.86
318 | R1D | 3.7
319 | R1P | 3.37
320 | I7V | 3.53
321 | E5V | 2.82
322 | E5H | 2.88
323 | E5S | 2.78
324 | E5R | 3.06
325 | R8F | 2.07
326 | R8Q | 3.92
327 | R8A | 3.72
328 | R8W | 2.3
329 | R8T | 4.19
330 | R8V | 3.25
331 | R8L | 1.65
332 | L24A | 4.11
333 | L24K | 4.12
334 | L24V | 3.66
